# Results published in patent US20220227815A1, “COMPOSITIONS AND METHODS USEFUL IN TREATING BRAIN DISEASES” (University of Kansas, priority 2019, published 2022).
# Columns and labels:
# amyloid beta plaques = assay: Amyloid beta plaque load in hippocampus, Congo red staining; type: in vivo, transgenic APP/PS1 mice; conditions: APP/PS1 mice; 8 injections; all three groups compared; n=5
# Method: Animals: All animal studies were carried out under the approved animal protocol (AUS-74-11) granted by Institutional Animal Care and Use Committee (IACUC) at The University of Kansas. Animal Care Unit (ACU) personnel and veterinarians were involved in the care of the animals used in this study. Female transgenic APP/PS1 (MMRRC stock #34832-Jax) were obtained from Jackson Laboratory (Bar Harbor, Me.) and housed until at least 6 months of age. Mice received intravenous (i.v.) injections of either BDNF (5.7 nmol/kg)+ADTC5 (10 μmol/kg; n=7), BDNF alone (5.7 nmol/kg; n=6), or vehicle (n=6) every 4 days, for a total of 8 injections. At the end of the study, the mice were euthanized via CO2 inhalation and perfused with PBS immediately followed by 4% formalin fixative solution. The brains were extracted and post-fixed overnight in the perfusion-fixation solution then transferred to 70% ethanol PBS solution for paraffin embedding.
# Coronal brain sections (10 μm thickness) were generated and mounted onto gelatin-coated slides (Superfrost Plus, Thermo Fisher Scientific, Waltham, Mass.). For both Aβ histology and NG2 receptor immunohistochemistry, sections were deparaffinized using xylene and serially hydrated from 95% ethanol to distilled water. […] Aβ plaque levels were quantified by counting the number of plaques from the hippocampus at 10× magnification from 5 random sections per group (n=5).
# [1] = system: EGR1, ARC, and NOS1 mRNA transcripts; assay: Fluorescent in situ hybridization of mRNA transcripts in EAE mouse cortex; type: in vivo, SJL/elite mice; conditions: across the three groups, n=5
# Method: Coronal brain sections (5 μm thickness) from mid- and hind-brain were sectioned and washed three times in PBS before mounting on gelatin-coated glass slides (Superfrost Plus, Thermo Fisher Scientific). Tissue was allowed to dry at RT and then stored at −20° C. until use. Fluorescent in situ hybridization (FISH) was performed using RNAscope® Technology 2.0, Advanced Cell Diagnostics (ACD), Hayward, Calif.) Multiplex Reagent Kit V2. See Vasquez, J. J.; Hussien, R.; Aguilar-Rodriguez, B.; Junger, H.; Dobi, D.; Henrich, T. J.; Thanh, C.; Gibson, E.; Hogan, L. E.; McCune, J.; Hunt, P. W.; Stoddart, C. A.; Laszik, Z. G. Elucidating the Burden of HIV in Tissues Using Multiplexed Immunofluorescence and In Situ Hybridization: Methods for the Single-Cell Phenotypic Characterization of Cells Harboring HIV In Situ. J Histochem Cytochem 2018, 66, (6), 427-446; Gershon, T. R.; Crowther, A. J.; Liu, H.; Miller, C. R.; Deshmukh, M. Cerebellar granule neuron progenitors are the source of Hk2 in the postnatal cerebellum. Cancer Metab 2013, 1, (1), 15; and Smith, P. A.; Schmid, C.; Zurbruegg, S.; Jivkov, M.; Doelemeyer, A.; Theil, D.; Dubost, V.; Beckmann, N. Fingolimod inhibits brain atrophy and promotes brain-derived neurotrophic factor in an animal model of multiple sclerosis. J Neuroimmunol 2018, 318, 103-113. […]
molecule,measurement,setting,value
"BDNF: recombinant brain-derived neurotrophic factor (13 kDa monomer), Peprotech (protein, UniProt P23560 19-247, looked up) Neurotrophic factor BDNF …: APMKEANIRGQGGLAYPGVRTHGTLESVNGPKAGSRGLTSLADTFEHVIEELLDEDQKVRPNEENNKDADLYTSRVMLSSQVPLEPPLLFLLEEYKNYLDAANMSMRVRRHSDPARRGELSVCDSISEWVTAADKKTAVDMSGGTVTVLEKVPVSKGQLKQYFYETKCNPMGYTKEGCRGIDKRHWNSQCRTTQSYVRALTMDSKKRIGWRFIRIDTSCVCTLTIKRGR",amounts of amyloid beta plaques in hippocampus,amyloid beta plaques,no significant difference
same,NOS mRNA expression,[1],no significant difference
